In US20120316071A1 (published 2012):

T1: rHuman Erythropoietin R/Fc Chimera, CF (R&D Systems Cat#963-ER) (human, UniProt P19235 25-250)
T1 construct: Bought recombinant protein; also called EPO R; Epo R/Fc; Fc part of the bought chimera not given
T1 sequence (looked up): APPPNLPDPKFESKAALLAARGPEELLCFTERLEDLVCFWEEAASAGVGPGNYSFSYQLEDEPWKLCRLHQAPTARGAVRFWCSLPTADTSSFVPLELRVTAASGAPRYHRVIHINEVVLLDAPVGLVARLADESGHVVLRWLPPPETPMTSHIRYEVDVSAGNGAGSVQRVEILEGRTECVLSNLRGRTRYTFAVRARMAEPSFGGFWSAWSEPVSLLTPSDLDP

B1: Fab VH1-46_IGHD6-6*01_IGHJ1*01 S102A/S103P/S104F/H111F (H:APFF) & L6_IGKJ1*01 S76N (Fab, V domains shown)
VH: QVQLVQSGAEVKKPGASVKVSCKASGYTFTSYYMHWVRQAPGQGLEWMGIINPSGGSTSYAQKFQGRVTMTRDTSTSTVYMELSSLRSEDTAVYYCAREEYAPFSAEYFQFWGQGTLVTVSS
VL: EIVLTQSPATLSLSPGERATLSCRASQSVSSYLAWYQQKPGQAPRLLIYDASNRATGIPARFSGSGSGTDFTLTINSLEPEDFAVYYCQQRSNWPPWTFGQGTKVEIKR
notes: Fab expressed in E. coli from plasmid A (heavy chain CH1, His6 and Flag tags) and plasmid C (kappa CL)
B2: Fab VH1-46_IGHD6-6*01_IGHJ1*01 S102A/S103P/S104F/H111F (H:APFF) & L6_IGKJ1*01 S76P (Fab, V domains shown)
VH: QVQLVQSGAEVKKPGASVKVSCKASGYTFTSYYMHWVRQAPGQGLEWMGIINPSGGSTSYAQKFQGRVTMTRDTSTSTVYMELSSLRSEDTAVYYCAREEYAPFSAEYFQFWGQGTLVTVSS
VL: EIVLTQSPATLSLSPGERATLSCRASQSVSSYLAWYQQKPGQAPRLLIYDASNRATGIPARFSGSGSGTDFTLTIPSLEPEDFAVYYCQQRSNWPPWTFGQGTKVEIKR
notes: as for B1

How the values were obtained:
[1] = molecular target: T2, rHuman IGF-1 sR (insulin-like growth factor-1 soluble receptor), CF (R&D Systems Cat#391-GR) (human, UniProt P08069 31-932); assay: MSD multispot ECL, antigen spotted on plate, Fab in solution; blank spot of this row 440
T2 construct: Bought recombinant soluble receptor; The column head prints only 'IGF-1'

[2] = molecular target: T3, rHuman HGF R/c-MET/Fc Chimera, CF (R&D Systems Cat#358-MT/CF) (human, UniProt P08581 25-932); assay: as above
T3 construct: Bought recombinant protein; also called HGF R/Fc; Fc part of the bought chimera not given
T3 sequence (P08581 25-932, change not shown): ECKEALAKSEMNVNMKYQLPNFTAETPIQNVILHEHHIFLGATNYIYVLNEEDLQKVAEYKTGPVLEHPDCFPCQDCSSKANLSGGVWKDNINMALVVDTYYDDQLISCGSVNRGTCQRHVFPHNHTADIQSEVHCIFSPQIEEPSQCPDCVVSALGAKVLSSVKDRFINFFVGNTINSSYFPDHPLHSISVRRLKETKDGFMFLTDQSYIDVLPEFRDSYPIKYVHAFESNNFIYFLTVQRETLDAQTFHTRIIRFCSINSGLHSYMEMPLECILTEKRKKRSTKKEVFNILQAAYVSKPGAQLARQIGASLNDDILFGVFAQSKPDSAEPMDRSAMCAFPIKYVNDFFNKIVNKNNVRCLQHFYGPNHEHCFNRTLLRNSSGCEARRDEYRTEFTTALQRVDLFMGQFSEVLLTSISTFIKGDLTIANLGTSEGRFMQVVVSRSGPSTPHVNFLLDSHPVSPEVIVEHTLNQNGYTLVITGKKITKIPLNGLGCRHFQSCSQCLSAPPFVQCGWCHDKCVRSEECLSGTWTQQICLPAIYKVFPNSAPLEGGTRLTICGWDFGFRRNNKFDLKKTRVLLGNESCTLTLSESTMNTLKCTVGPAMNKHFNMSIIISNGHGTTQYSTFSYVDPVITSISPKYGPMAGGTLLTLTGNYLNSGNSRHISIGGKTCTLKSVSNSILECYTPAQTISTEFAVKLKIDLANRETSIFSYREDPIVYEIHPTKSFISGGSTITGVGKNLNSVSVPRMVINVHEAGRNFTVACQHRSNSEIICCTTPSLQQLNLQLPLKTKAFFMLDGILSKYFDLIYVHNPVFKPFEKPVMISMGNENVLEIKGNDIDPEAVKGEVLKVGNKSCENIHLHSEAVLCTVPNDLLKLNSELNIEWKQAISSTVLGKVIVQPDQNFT

[3] = molecular target: T4, rHuman CD44/Fc Chimera, CF (R&D Systems Cat#3660-CD) (human, UniProt P16070 21-220); assay: as above
T4 construct: Bought recombinant protein; Fc part of the bought chimera not given

[4] = molecular target: T1, rHuman Erythropoietin R/Fc Chimera, CF …; assay: as above
[5] = molecular target: T5, rHuman ErbB2/Fc Chimera, CF (R&D Systems Cat#1129-ER) (human, UniProt P04626 23-652); assay: as above
T5 construct: Bought recombinant protein; Fc part of the bought chimera not given

[6] = molecular target: T6, rHuman Notch-1/Fc Chimera, CF (R&D Systems Cat#3647-TK) (human, UniProt P46531 19-526); assay: as above
T6 construct: Bought recombinant protein; Fc part of the bought chimera not given

[7] = molecular target: T7, rHuman P-Cadherin/Fc Chimera, CF (R&D Systems Cat#861-PC) (human, UniProt P22223 108-654); assay: as above
T7 construct: Bought recombinant protein; Fc part of the bought chimera not given

[8] = molecular target: T8, Recombinant Human DLL4 (R&D Systems Cat#1506-D4/CF) (human, UniProt Q9NR61 27-524); assay: as above
T8 construct: Bought recombinant protein; also called delta-like protein 4; rHuman DLL4

[9] = molecular target: T9, rHuman EGF R/Fc Chimera, CF (R&D Systems Cat#344-ER) (human, UniProt P00533 25-645); assay: as above
T9 construct: Bought recombinant protein; Fc part of the bought chimera not given

[10] = molecular target: T2, rHuman IGF-1 sR (insulin-like growth …); assay: MSD multispot ECL, antigen spotted on plate, Fab in solution; blank spot of this row 298
[11] = molecular target: T3, rHuman HGF R/c-MET/Fc Chimera, CF (R&D …); assay: as above
[12] = molecular target: T4, rHuman CD44/Fc Chimera, CF (R&D Systems …); assay: as above
[13] = molecular target: T1, rHuman Erythropoietin R/Fc Chimera, CF …; assay: as above
[14] = molecular target: T5, rHuman ErbB2/Fc Chimera, CF (R&D …); assay: as above
[15] = molecular target: T6, rHuman Notch-1/Fc Chimera, CF (R&D …); assay: as above
[16] = molecular target: T7, rHuman P-Cadherin/Fc Chimera, CF (R&D …); assay: as above
[17] = molecular target: T8, Recombinant Human DLL4 (R&D Systems …); assay: as above
[18] = molecular target: T9, rHuman EGF R/Fc Chimera, CF (R&D …); assay: as above

| Binder | ECL signal [1] | ECL signal [2] | ECL signal [3] | ECL signal [4] | ECL signal [5] | ECL signal [6] | ECL signal [7] | ECL signal [8] | ECL signal [9] | ECL signal [10] | ECL signal [11] | ECL signal [12] | ECL signal [13] | ECL signal [14] | ECL signal [15] | ECL signal [16] | ECL signal [17] | ECL signal [18] |
| --- | --- | --- | --- | --- | --- | --- | --- | --- | --- | --- | --- | --- | --- | --- | --- | --- | --- | --- |
| B1 | 378 | 429 | 369 | 384 | 436 | 298 | 329 | 52000 | 385 |  |  |  |  |  |  |  |  |  |
| B2 |  |  |  |  |  |  |  |  |  | 347 | 394 | 313 | 371 | 260 | 402 | 271 | 29800 | 331 |
